Measured values: patent publication US20240400708A1

molecular target: Feline FcRn complex (FcRn-alpha subunit and beta-microglobulin) (feline); assay: SPR (Biacore), feline FcRn captured on SA chip, IgG flowed over, pH 6

Row | Binder | Kd
1 | feline IgG1a Fc mutant S428L, S252W (antibody, part only; not given: Variable domains, not shown: another chain or arm of the molecule; small tags and cut ends) constant: ASTTAPSVFPLAPSCGTTSGATVALACLVLGYFPEPVTVSWNSGALTSGVHTFPAVLQASGLYSLSSMVTVPSSRWLSDTFTCNVAHPPSNTKVDKTVRKTDHPPGPKPCDCPKCPPPEMLGGPSIFIFPPKPKDTLWISRTPEVTCLVVDLGPDDSDVQITWFVDNTQVYTAKTSPREEQFNSTYRVVSVLPILHQDWLKGKEFKCKVNSKSLPSPIERTISKAKGQPHEPQVYVLPPAQEELSRNKVSVTCLIKSFHPPDIAVEWEITGQPEPENNYRTTPPQLDSDGTYFVYSKLSVDRSHWQRGNTYTCSVLHEALHSHHTQKSLTQSPGK | 6.14 nM
2 | feline IgG1a Fc mutant Q311H, S428L (antibody, part only; not given: Variable domains, not shown: another chain or arm of the molecule; small tags and cut ends) constant: ASTTAPSVFPLAPSCGTTSGATVALACLVLGYFPEPVTVSWNSGALTSGVHTFPAVLQASGLYSLSSMVTVPSSRWLSDTFTCNVAHPPSNTKVDKTVRKTDHPPGPKPCDCPKCPPPEMLGGPSIFIFPPKPKDTLSISRTPEVTCLVVDLGPDDSDVQITWFVDNTQVYTAKTSPREEQFNSTYRVVSVLPILHHDWLKGKEFKCKVNSKSLPSPIERTISKAKGQPHEPQVYVLPPAQEELSRNKVSVTCLIKSFHPPDIAVEWEITGQPEPENNYRTTPPQLDSDGTYFVYSKLSVDRSHWQRGNTYTCSVLHEALHSHHTQKSLTQSPGK | 7.19 nM
3 | feline IgG1a Fc mutant Q311W, S428L (antibody, part only; not given: Variable domains, not shown: another chain or arm of the molecule; small tags and cut ends) constant: ASTTAPSVFPLAPSCGTTSGATVALACLVLGYFPEPVTVSWNSGALTSGVHTFPAVLQASGLYSLSSMVTVPSSRWLSDTFTCNVAHPPSNTKVDKTVRKTDHPPGPKPCDCPKCPPPEMLGGPSIFIFPPKPKDTLSISRTPEVTCLVVDLGPDDSDVQITWFVDNTQVYTAKTSPREEQFNSTYRVVSVLPILHWDWLKGKEFKCKVNSKSLPSPIERTISKAKGQPHEPQVYVLPPAQEELSRNKVSVTCLIKSFHPPDIAVEWEITGQPEPENNYRTTPPQLDSDGTYFVYSKLSVDRSHWQRGNTYTCSVLHEALHSHHTQKSLTQSPGK | 8.08 nM
4 | feline IgG1a Fc mutant Q311Y, S428L (antibody, part only; not given: Variable domains, not shown: another chain or arm of the molecule; small tags and cut ends) constant: ASTTAPSVFPLAPSCGTTSGATVALACLVLGYFPEPVTVSWNSGALTSGVHTFPAVLQASGLYSLSSMVTVPSSRWLSDTFTCNVAHPPSNTKVDKTVRKTDHPPGPKPCDCPKCPPPEMLGGPSIFIFPPKPKDTLSISRTPEVTCLVVDLGPDDSDVQITWFVDNTQVYTAKTSPREEQFNSTYRVVSVLPILHYDWLKGKEFKCKVNSKSLPSPIERTISKAKGQPHEPQVYVLPPAQEELSRNKVSVTCLIKSFHPPDIAVEWEITGQPEPENNYRTTPPQLDSDGTYFVYSKLSVDRSHWQRGNTYTCSVLHEALHSHHTQKSLTQSPGK | 5.72 nM
5 | feline IgG1a Fc mutant Q311K, S428L (antibody, part only; not given: variable domains and light chain, not shown: another chain or arm of the molecule; small tags and cut ends) constant: ASTTAPSVFPLAPSCGTTSGATVALACLVLGYFPEPVTVSWNSGALTSGVHTFPAVLQASGLYSLSSMVTVPSSRWLSDTFTCNVAHPPSNTKVDKTVRKTDHPPGPKPCDCPKCPPPEMLGGPSIFIFPPKPKDTLSISRTPEVTCLVVDLGPDDSDVQITWFVDNTQVYTAKTSPREEQFNSTYRVVSVLPILHKDWLKGKEFKCKVNSKSLPSPIERTISKAKGQPHEPQVYVLPPAQEELSRNKVSVTCLIKSFHPPDIAVEWEITGQPEPENNYRTTPPQLDSDGTYFVYSKLSVDRSHWQRGNTYTCSVLHEALHSHHTQKSLTQSPGK | 5.62 nM
6 | feline IgG1a Fc mutant Q311L, S428L (antibody, part only; not given: Variable domains, not shown: another chain or arm of the molecule; small tags and cut ends) constant: ASTTAPSVFPLAPSCGTTSGATVALACLVLGYFPEPVTVSWNSGALTSGVHTFPAVLQASGLYSLSSMVTVPSSRWLSDTFTCNVAHPPSNTKVDKTVRKTDHPPGPKPCDCPKCPPPEMLGGPSIFIFPPKPKDTLSISRTPEVTCLVVDLGPDDSDVQITWFVDNTQVYTAKTSPREEQFNSTYRVVSVLPILHLDWLKGKEFKCKVNSKSLPSPIERTISKAKGQPHEPQVYVLPPAQEELSRNKVSVTCLIKSFHPPDIAVEWEITGQPEPENNYRTTPPQLDSDGTYFVYSKLSVDRSHWQRGNTYTCSVLHEALHSHHTQKSLTQSPGK | 6.03 nM
